According to patent US5597719, “Interaction of RAF-1 and 14-3-3 proteins” (Onyx Pharmaceuticals, Inc., dated 1997):

Tests used:
[1] = biological target: GAL4 DNA-binding domain alone (Saccharomyces cerevisiae (strain ATCC …, UniProt P04386)); experiment: yeast two-hybrid
Description: However, interaction between 14-3-3β and the bcr gene product, which itself has endogenous kinase activity, was detected.
The Raf-1 coding sequence was isolated by PCR amplification of a human placental cDNA library purchased from Stratagene (San Diego, Calif.) as described by MacDonald et al. (1993) *Mol. Cell Biol.* 13: 16.15. For use in the two hybrid screen (Chien et al. (1991) *Proc. Natl. Acad. Sci. USA* 88: 9578), the Raf-1 gene was fused to sequence encoding the GAL4-DNA binding domain by digesting pGEM Raf-I with NcoI and SacI to liberate the Raf-1 coding sequence and subcloning into the pGBT8 plasmid (Hannon et al. (1993) *Genes & Dev.* 7: 2378) digested also with Nco I and Sac I. Yeast (*S. cerevisiae*) of strain YGH-1 (Hannon et al. (1993) op.cit.) were transformed with pGBT8 Raf1, and the resultant strain was transformed with a HeLa cell cDNA library encoding fusions with the GAL4 activation domain in the plasmid pGAD (Chien et al. (1991) *Proc. Natl. Acad. Sci.* (USA) 88: 9578). The YGH-1 strain contains two reported genes, HIS3 and lacZ, which allow selection of cDNAs encoding proteins capable of interacting with the gene of interest, in this case, Raf-1. The first selection was by the ability to grow on plates lacking histidine. Positive colonies were then tested for production of β-galactodidase using X-gal as substrate as described by Hannon et al. op.cit. […]

[2] = biological target: full-length Raf-1 (wildtype Raf) (human); experiment: cell-based or functional assay
[3] = biological target: Ras-binding domain of Raf (aa51-aa131) (human); experiment: ELISA

| binding result [1] | Raf activity in cells containing the 14-3-3 proteins [2] | binding result [3] | Binder |
| --- | --- | --- | --- |
| no binding | – | – | human P1A2 (14-3-3ζ) fused with GAL4 activation domain (other) MDKNELVQKAKLAEQAERYDDMAACMKSVTEQGAELSNEERNLLSVAYKNVVGARRSSWRVVSSIEQKTEGAEKKQQMAREYREKIETELRDICNDVLSLLEKFLIPNASQAESKVFYLKMKGDYYRYLAEVAAGDDKKGIVDQSQQAYQEAFEISKKEMQPTHPIRLGLALNFSVFYYEILNSPEKACSLAKTAFDEAIAELDTLSEESYKDSTLIMQLLRDNLTLWTSDTQGDEAEAGEGGEN |
| – | 2 fold increase over background | – | 14-3-3ζ (not fused to GAL4) (other) MDKNELVQKAKLAEQAERYDDMAACMKSVTEQGAELSNEERNLLSVAYKNVVGARRSSWRVVSSIEQKTEGAEKKQQMAREYREKIETELRDICNDVLSLLEKFLIPNASQAESKVFYLKMKGDYYRYLAEVAAGDDKKGIVDQSQQAYQEAFEISKKEMQPTHPIRLGLALNFSVFYYEILNSPEKACSLAKTAFDEAIAELDTLSEESYKDSTLIMQLLRDNLTLWTSDTQGDEAEAGEGGEN |
| no binding | – | – | human HS1 1054 (14-3-3β) fused with GAL4 activation domain (other) MTMDKSELVQKAKLAEQAERYDDMAAAMKAVTEQGHELSNEERNLLSVAYKNVVGARRSSWRVISSIEQKTERNEKKQQMGKEYREKIEAELQDICNDVLELLDKYLIPNATQPESKVFYLKMKGDYFRYLSEVASGDNKQTTVSNSQQAYQEAFEISKKEMQPTHPIRLGLALNFSVFYYEILNSPEKACSLAKTAFDEAIAELDTLNEESYKDSTLIMQLLRDNLTLWTSENQGDEGDAGEGEN |
| – | 2 fold increase over background | no binding | 14-3-3β (not fused to GAL4) (other) MTMDKSELVQKAKLAEQAERYDDMAAAMKAVTEQGHELSNEERNLLSVAYKNVVGARRSSWRVISSIEQKTERNEKKQQMGKEYREKIEAELQDICNDVLELLDKYLIPNATQPESKVFYLKMKGDYFRYLSEVASGDNKQTTVSNSQQAYQEAFEISKKEMQPTHPIRLGLALNFSVFYYEILNSPEKACSLAKTAFDEAIAELDTLNEESYKDSTLIMQLLRDNLTLWTSENQGDEGDAGEGEN |
